Data reported in patent publication US20240368233A1 (University of Washington, published 2024).

Key:
275B = biological target: T1, 275B; assay: SEC of mixed components; tetramer (control pentamer) listed in Table 6, neighbours in the chain
T1 construct: also called LHD275 B; LHD275B
T1 chain: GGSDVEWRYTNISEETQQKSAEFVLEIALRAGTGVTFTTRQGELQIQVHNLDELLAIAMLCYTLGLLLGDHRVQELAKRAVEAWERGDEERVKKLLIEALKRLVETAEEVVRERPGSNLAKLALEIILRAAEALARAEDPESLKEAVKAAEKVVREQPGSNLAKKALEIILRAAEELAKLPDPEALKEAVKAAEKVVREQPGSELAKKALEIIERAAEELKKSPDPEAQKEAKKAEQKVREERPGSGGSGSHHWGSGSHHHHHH
Method: Complexes and individual components were diluted in 20 mM Tris pH 8.0, 100 mM NaCl. After o/n equilibration of the mixtures at room temperature or 4 degrees C., 500 ul of sample was injected onto a Superdex™ 200 10/300 increase GL (dimers, linear assemblies) or Superose™ 6 increase 10/300 GL (symmetric assemblies) (all columns from GE healthcare) using the absorbance at 230 nm or 473 nm (for GFP tagged components) as read-out. Dimers were mixed at monomer concentrations of 5 μM or higher. Trimer and ABCD tetramer mixtures contained 5 μM of the bivalent connector, and 7.5 μM of each terminal cap (lower absolute concentrations with the same ratios were used for some trimers). ABCA tetramer mixtures contained 5 μM per bivalent connector and 15 μM terminal cap. The hexamer mixture contained 3 μM of components C and D, 3.6 μM of B and E, and 4.4 μM of A and F. The branched assembly shown in FIG. 4A contained 2.8 μM of the trivalent connector and 4 μM of each cap. For the exchange experiment shown in FIG. 5A, the ABC trimer was preincubated at concentrations of 6 μM B and 9 μM each of A and C. C′ was then added to reach a final concentration of 2 μM B, 3 μM each of A and C, and 6 μM C′.

LHD101 chainB [1] = biological target: T2, LHD101 chainB; assay: BLI
T2 construct: also called LHD101B
T2 chain: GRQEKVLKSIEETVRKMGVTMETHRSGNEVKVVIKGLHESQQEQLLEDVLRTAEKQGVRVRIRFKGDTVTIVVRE
Text: FIG. 8A-E. Characterization LHD binding in vitro. A: Designed models heterodimers (top row). Middle row, SEC binding experiments performed on a Superdex™ 75 column. Bottom row, biolayer interferometry kinetic binding traces. […] C: Kinetic binding traces from BLI. Equilibrium responses were used to fit equilibrium binding curves D: Equilibrium binding curves of LHDs from biolayer interferometry binding assays with data from C. […] Biotinylated unfused protomers were immobilized on streptavidin coated biosensors.
Biolayer interferometry experiments were performed on an OctetRED96 BLI system (ForteBio, Menlo Park, CA). Streptavidin coated biosensors were first equilibrated for at least 10 minutes in Octet buffer (10 mM HEPES pH 7.4, 150 mM NaCl, 3 mM EDTA, 0.05% Surfactant P20) supplemented with 1 mg/ml Bovine Serum Albumin (SigmaAldrich). Enzymatically biotinylated designs were immobilized onto the biosensors by dipping the biosensors into a solution with 10-50 nM protein for 30-120 s. This was followed by dipping in fresh octet buffer to establish a baseline for 120 s. Titration experiments were performed at 25° C. while rotating at 1,000 r.p.m. […]

LHD101 chainB [2] = biological target: T2, LHD101 chainB; assay: BLI, steady state fit
Method: (§1) Biolayer interferometry experiments were performed on an OctetRED96 BLI system (ForteBio, Menlo Park, CA). Streptavidin coated biosensors were first equilibrated for at least 10 minutes in Octet buffer (10 mM HEPES pH 7.4, 150 mM NaCl, 3 mM EDTA, 0.05% Surfactant P20) supplemented with 1 mg/ml Bovine Serum Albumin (SigmaAldrich). Enzymatically biotinylated designs were immobilized onto the biosensors by dipping the biosensors into a solution with 10-50 nM protein for 30-120 s. This was followed by dipping in fresh octet buffer to establish a baseline for 120 s. Titration experiments were performed at 25° C. while rotating at 1,000 r.p.m. Association of designs was allowed by dipping biosensors in solutions containing designed protein diluted in octet buffer until equilibrium was approached followed by dissociation by dipping the biosensors into fresh buffer solution in order to monitor the dissociation kinetics. Steady-state and global kinetic fits were performed using the manufacturer's software (Data Analysis 9.1) assuming a 1:1 binding model.

[3] = biological target: the molecule itself; assay: SEC titration (self-association)
LHD101 chainB [4] = biological target: T2, LHD101 chainB; assay: BLI, global kinetic fit, 1:1 model
Method: as §1

LHD101 chainB [5] = biological target: T2, LHD101 chainB; assay: BLI, dissociation rate constant (kdis)
Method: as §1

[6] = biological target: T3, LHD274 chainB, split luciferase reporter construct; assay: split luciferase association kinetics, 1 nM vs. 10 nM, in lysate
T3 construct: not shown: N-terminal Strep-tag and sfGFP; GS-linker and smBiT or lgBiT
T3 chain: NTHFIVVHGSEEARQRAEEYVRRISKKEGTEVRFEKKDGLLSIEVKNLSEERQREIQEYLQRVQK
Method: Assays were performed in 20 mM sodium phosphate, 100 mM NaCl, pH 7.4, 0.05% v/v Tween 20. Reactions were assembled in 96 well plates (Corning, cat #3686) in the presence of Nano-Glo™ substrate (Promega, cat. #N1130) diluted 100× or 500× for kinetics and endpoint measurements respectively (see supplement for detailed information). Luminescence was recorded on a Synergy Neo2 plate reader (BioTek). Kinetic assays were performed under pseudo first-order conditions, with the final concentration of one protein at 1 nM and the other at 10 nM. Dead times between substrate addition and data acquisition were typically 15-30 s. For long kinetic measurements (FIG. 11A), mastermixes of the protein complexes were made and aliquots were sampled at regular intervals. Data were fitted to a single exponential decay function: […]

289B [7] = biological target: T4, 289B; assay: BLI, steady state fit
T4 construct: also called LHD289 B; LHD289 chainB
T4 chain: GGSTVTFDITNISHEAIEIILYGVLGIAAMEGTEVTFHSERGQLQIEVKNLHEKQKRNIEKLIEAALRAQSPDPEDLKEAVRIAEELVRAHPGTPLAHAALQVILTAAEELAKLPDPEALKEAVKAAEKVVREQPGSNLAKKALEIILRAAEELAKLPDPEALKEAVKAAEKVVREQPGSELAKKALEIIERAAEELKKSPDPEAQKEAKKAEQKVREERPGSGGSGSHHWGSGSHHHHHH
Method: as §1

289B [8] = biological target: T4, 289B; assay: BLI, global kinetic fit, 1:1 model
Method: as §1

284B [9] = biological target: T5, 284B; assay: BLI, steady state fit
T5 construct: also called LHD284 B; LHD284 chainB
T5 chain: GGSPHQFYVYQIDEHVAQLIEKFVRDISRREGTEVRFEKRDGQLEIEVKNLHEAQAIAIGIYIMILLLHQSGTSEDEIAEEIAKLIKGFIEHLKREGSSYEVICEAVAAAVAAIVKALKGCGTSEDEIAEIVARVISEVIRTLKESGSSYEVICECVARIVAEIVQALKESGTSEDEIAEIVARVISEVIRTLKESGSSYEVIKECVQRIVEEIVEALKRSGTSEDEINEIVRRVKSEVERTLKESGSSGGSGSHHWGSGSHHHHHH
Method: as §1

284B [10] = biological target: T5, 284B; assay: BLI, global kinetic fit, 1:1 model
Method: as §1

B1: DF275A-1 (designed binder)
chain: HHHHHHGSGSGRQEKVLKSIEETVRKMGVEMLTFRAGKAVIVVIRGLHPEQAKQLLRDVSQTAHKQGVTVTLTFHGDVVFILVLVGASEEQQRAMQLLIQALARIIHEAKRRGVSEEQLKRMIEAAARLIEVLLKALEAAREGNTDEVREQLQRALEIVREIGLTAAVRLALLVVEAVATLAAKRGNTDAVREALEVALEIARESGTTEAVKLALEVVARVAIEAARRGNTDAVREALEVALEIARESGTTEAVKLALEVVARVAIEAARRGNTDAVREALAVAVKIALKSGTEEAFRLAKEVIKRVSDEAKKQGNEDAVKEAESFDAAAELILSLLKLFRELHERGTEIVVEVHINGRKTEIEVQGIDKRLLQIILEVIIEEIAREGPDKVEVNVHSGGQTWTFRYGGS
notes: Bivalent connector
- binding result (275B): binds

B2: LHD101 chainA (designed binder)
chain: GRQEKVLKSIEETVRKMGVTMETHRSGNEVKVVIKGLHIKQQRQLYRDVRETSKKQGVETEIEVEGDTVTIVVRE
notes: also called LHD101A
- kon (LHD101 chainB [1]): 1e+06 M⁻¹ s⁻¹
- Kd (LHD101 chainB [2]): 9.5 nM
- binding result [3]: no binding (tested: above 100 µM)
- Kd (LHD101 chainB [4]): 1.9 nM
- koff (LHD101 chainB [4]): 0.0043 s⁻¹
- kon (LHD101 chainB [4]): 2.2e+06 M⁻¹ s⁻¹
- koff (LHD101 chainB [5]): 0.0214 s⁻¹

B3: LHD274 chainA, split luciferase reporter construct (designed binder)
chain: TTNFHLINGSEEARQRIEEYVRRISKKEGTEVHFEKSDGTLEIRVKNLHEKREREIKEYIERVLL
notes: not shown: N-terminal Strep-tag and sfGFP; GS-linker and smBiT or lgBiT
- kobs [6]: 0.0014 s⁻¹

B4: LHD289 chainA (designed binder)
chain: GRQEKVLKSIEETVRKMGVTMLTHRHGNVVFVVILGLHKQQALQLLRDVHRTAHKQGVTLSITFSGDIVVIAVTVGASEEEKKEVRKIVKEIAKQLRHAETEEEAKEIVQRVIEEWQEEG
notes: also called LHD289A
- Kd (289B [7]): 610 nM
- Kd (289B [8]): 1080 nM
- koff (289B [8]): 0.057 s⁻¹
- kon (289B [8]): 53000 M⁻¹ s⁻¹

B5: LHD284 chainA (designed binder)
chain: TDELLERLRQLFEELHERGTIIIVEVHINGERQTKYLILAPKEELKKHLERIREKIEREGSSEVEVKVTSGGTTWTFNEK
notes: also called LHD284A
- Kd (284B [9]): 97 nM
- Kd (284B [10]): 8.9 nM
- koff (284B [10]): 0.0012 s⁻¹
- kon (284B [10]): 130000 M⁻¹ s⁻¹
